According to patent US20190055322A1:

B1: Nanobody 308 (6B05-40GS-1E11) (VHH)
chain: EVQLVESGGGLVQPGGSLRLSCAASGSIFSINTMGWYRQAPGKQRELVSTITSNLVPHYADSVQGRFTISRDNARNTVYLQMNSLKPQDTAHYYCNAWARSSGATPYTNYWGQGTLVTVSSGGGGSGGGGSGGGGSGGGGSGGGGSGGGGSGGGGSGGGGSEVQLVESGGGLVQPGGSLRLSCAASGSTRSVNPMAWFRQAPGRQREWVATISRSGYATYADSVKGRFTISGDNAKSSVYLQMNSLKPEDTAVYYCVTGTYWGQGTLVTVSS
B2: Nanobody 064 (13F07-40GS-7C10) (VHH)
chain: EVQLVESGGGLVQAGGSLRLSCAASGNTFSTNPMYWYRQAEGKQRELVASISSRGITNYADSVRGRFSISRDNTKDTVYLQMNSLKPEDTAVYYCRLASLSSGTVYWGKGTLVTVSSGGGGSGGGGSGGGGSGGGGSGGGGSGGGGSGGGGSGGGGSEVQLVESGGGLVQAGGSLRLSCTASGRTLSSYTMGWFRQAPGTEREFVAAMTRSGFNTYYADSVKGRFTISRDSTENTMALQMSSLKPEDTAVYYCTAGRGLTSYRADYWGQGTLVTVSS
B3: Fab 26.24 (Fab, V domains shown)
VH: EVQLVESGGGVVQPGRSLRLSCAASGFTFSNYPMHWVRQAPGKGLEWVAVISYDGSEKWYADSVKGRFTISRDNSKNTLYLEMNSLRPEDTAVYYCARNRGDIYYDFTYAMDIWGQGTTVTVSS
VL: DIQLTQSPSTLSASVGDSVTITCRASEGVDRWLAWYQQKPGRAPKLLIYDASTLQSGVPSRFSGSGSGTEFSLTISSLQPDDVATYYCQHFWGTPYTFGQGTKLEIKR
B4: Nanobody 260 (1E11-40GS-2B10) (VHH)
chain: EVQLVESGGGLVQPGGSLRLSCAASGSTRSVNPMAWFRQAPGRQREWVATISRSGYATYADSVKGRFTISGDNAKSSVYLQMNSLKPEDTAVYYCVTGTYWGQGTLVTVSSGGGGSGGGGSGGGGSGGGGSGGGGSGGGGSGGGGSGGGGSEVQLVESGGGLVQPGGSLRLSCAASGSIFSINNMGWYRQAPGKQRELVTVVTSNLITTYADSVKGRFTISRDNAKNTVYLQMNSLKPEDTAVYYCNAWARSVGSVPYSQFWGQGTLVTVSS
B5: Nanobody 258 (13F07-40GS-14E10) (VHH)
chain: EVQLVESGGGLVQAGGSLRLSCAASGNTFSTNPMYWYRQAEGKQRELVASISSRGITNYADSVRGRFSISRDNTKDTVYLQMNSLKPEDTAVYYCRLASLSSGTVYWGKGTLVTVSSGGGGSGGGGSGGGGSGGGGSGGGGSGGGGSGGGGSGGGGSEVQLVESGGGLVQPGGSLRLSCAASGRIFSINTMGWYRQAPGKQRELVAGVTINAITNYADSVKGRFTISRDNAKNTVWLQMNSLKPEDTAVYYCHAWARSSGSAPYSQNWGQGTLVTVSS
B6: 4G10-40GS-7C10 (VHH)
chain: EVQLVESGGGLVQAGGSLRLSCVISEDGVRNYDMGWFRQAPGKEREFVATINWSGGSTNYADSVKGRFTVSRDNAKNTMYLQMDSLKPEDTAVYYCVAAGFYNNYLRTAPNDWNDWGQGTQVTVSSGGGGSGGGGSGGGGSGGGGSGGGGSGGGGSGGGGSGGGGSEVQLVESGGGLVQAGGSLRLSCTASGRTLSSYTMGWFRQAPGTEREFVAAMTRSGFNTYYADSVKGRFTISRDSTENTMALQMSSLKPEDTAVYYCTAGRGLTSYRADYWGQGTLVTVSS
B7: Nanobody 234 (7C10-40GS-5H01) (VHH)
chain: EVQLVESGGGLVQAGGSLRLSCTASGRTLSSYTMGWFRQAPGTEREFVAAMTRSGFNTYYADSVKGRFTISRDSTENTMALQMSSLKPEDTAVYYCTAGRGLTSYRADYWGQGTLVTVSSGGGGSGGGGSGGGGSGGGGSGGGGSGGGGSGGGGSGGGGSEVQLVESGGGLVQPGGSLRLSCAASGSTLDYYAIGWFRQAPGKEREGVSCTSNSGSTYYGGSVKGRFTASRDNAKNTVYLQMNSLRPEDTAVYYCVATIGCATLGGTLDVQRYYYRGQGTLVTVSS
B8: Nanobody 283 (7E09-40GS-6B05) (VHH)
chain: EVQLVESGGGLVQAGGSLRLSCAASGRTFSSYIMGWFRQAPGKAREFVADITWGQRPYYADSVKGRFTISRDNAKNTVYLEMNSLKPEDTAVYYCAADLGVVIREEHAYWGQGTLVTVSSGGGGSGGGGSGGGGSGGGGSGGGGSGGGGSGGGGSGGGGSEVQLVESGGGLVQPGGSLRLSCAASGSIFSINTMGWYRQAPGKQRELVSTITSNLVPHYADSVQGRFTISRDNARNTVYLQMNSLKPQDTAHYYCNAWARSSGATPYTNYWGQGTLVTVSS
B9: Nanobody 272 (11B09-40GS-10C05) (VHH)
chain: EVQLVESGGGLVQAGGSLRLSCAASRLTFNHYNMGWFRQAPGKERERVAEVTWSGDKIYYVDSVKGRFTISRDNTPNPVYLYLQMNSLKPEDTAVYYCATAPRGLPYANGYWGQGTLVTVSSGGGGSGGGGSGGGGSGGGGSGGGGSGGGGSGGGGSGGGGSEVQLVESGGGLVQPGGSLRLSCAASGSIFSINTMGWYRQAPGKQRDLVASITMNQVPNYADSVQGRFTISRDNVRNTVHLQMNAVKPEDTADYFCNAWVRSSGASPYTNYWGQGTLVTVSS
B10: Nanobody 302 (5H01-40GS-7C10) (VHH)
chain: EVQLVESGGGLVQPGGSLRLSCAASGSTLDYYAIGWFRQAPGKEREGVSCTSNSGSTYYGGSVKGRFTASRDNAKNTVYLQMNSLRPEDTAVYYCVATIGCATLGGTLDVQRYYYRGQGTLVTVSSGGGGSGGGGSGGGGSGGGGSGGGGSGGGGSGGGGSGGGGSEVQLVESGGGLVQAGGSLRLSCTASGRTLSSYTMGWFRQAPGTEREFVAAMTRSGFNTYYADSVKGRFTISRDSTENTMALQMSSLKPEDTAVYYCTAGRGLTSYRADYWGQGTLVTVSS
B11: Nanobody 262 (7E09-40GS-7C10) (VHH)
chain: EVQLVESGGGLVQAGGSLRLSCAASGRTFSSYIMGWFRQAPGKAREFVADITWGQRPYYADSVKGRFTISRDNAKNTVYLEMNSLKPEDTAVYYCAADLGVVIREEHAYWGQGTLVTVSSGGGGSGGGGSGGGGSGGGGSGGGGSGGGGSGGGGSGGGGSEVQLVESGGGLVQAGGSLRLSCTASGRTLSSYTMGWFRQAPGTEREFVAAMTRSGFNTYYADSVKGRFTISRDSTENTMALQMSSLKPEDTAVYYCTAGRGLTSYRADYWGQGTLVTVSS
B12: 3E10-40GS-2B10 (VHH)
chain: EVQLVESGGGLVQAGGSLRLSCTASGHTFSSYTMGWFRQAPGKEREFVAAMTRSGFNTHYSDSVKGRFTISRDNTSRDNTKITMALQMNSLKPEDTAVYYCTTGRGLTSYVANFWGQGTQVTVSSGGGGSGGGGSGGGGSGGGGSGGGGSGGGGSGGGGSGGGGSEVQLVESGGGLVQPGGSLRLSCAASGSIFSINNMGWYRQAPGKQRELVTVVTSNLITTYADSVKGRFTISRDNAKNTVYLQMNSLKPEDTAVYYCNAWARSVGSVPYSQFWGQGTLVTVSS
B13: Nanobody 087 (1E11-40GS-7C10) (VHH)
chain: EVQLVESGGGLVQPGGSLRLSCAASGSTRSVNPMAWFRQAPGRQREWVATISRSGYATYADSVKGRFTISGDNAKSSVYLQMNSLKPEDTAVYYCVTGTYWGQGTLVTVSSGGGGSGGGGSGGGGSGGGGSGGGGSGGGGSGGGGSGGGGSEVQLVESGGGLVQAGGSLRLSCTASGRTLSSYTMGWFRQAPGTEREFVAAMTRSGFNTYYADSVKGRFTISRDSTENTMALQMSSLKPEDTAVYYCTAGRGLTSYRADYWGQGTLVTVSS
B14: Nanobody 269 (6B05-40GS-13F07) (VHH)
chain: EVQLVESGGGLVQPGGSLRLSCAASGSIFSINTMGWYRQAPGKQRELVSTITSNLVPHYADSVQGRFTISRDNARNTVYLQMNSLKPQDTAHYYCNAWARSSGATPYTNYWGQGTLVTVSSGGGGSGGGGSGGGGSGGGGSGGGGSGGGGSGGGGSGGGGSEVQLVESGGGLVQAGGSLRLSCAASGNTFSTNPMYWYRQAEGKQRELVASISSRGITNYADSVRGRFSISRDNTKDTVYLQMNSLKPEDTAVYYCRLASLSSGTVYWGKGTLVTVSS
B15: 3E10-40GS-5H01 (VHH)
chain: EVQLVESGGGLVQAGGSLRLSCTASGHTFSSYTMGWFRQAPGKEREFVAAMTRSGFNTHYSDSVKGRFTISRDNTSRDNTKITMALQMNSLKPEDTAVYYCTTGRGLTSYVANFWGQGTQVTVSSGGGGSGGGGSGGGGSGGGGSGGGGSGGGGSGGGGSGGGGSEVQLVESGGGLVQPGGSLRLSCAASGSTLDYYAIGWFRQAPGKEREGVSCTSNSGSTYYGGSVKGRFTASRDNAKNTVYLQMNSLRPEDTAVYYCVATIGCATLGGTLDVQRYYYRGQGTQVTVSS
B16: Nanobody 264 (1E11-40GS-2B02) (VHH)
chain: EVQLVESGGGLVQPGGSLRLSCAASGSTRSVNPMAWFRQAPGRQREWVATISRSGYATYADSVKGRFTISGDNAKSSVYLQMNSLKPEDTAVYYCVTGTYWGQGTLVTVSSGGGGSGGGGSGGGGSGGGGSGGGGSGGGGSGGGGSGGGGSEVQLVESGGGLVQPGDSLRLSCAASGRILSINNMVWYRQAPGKQRELVAHITSSGSTGYADSVKGRFTISRDNAKNTFYLQMTNLNPEDTAVYYCNCWVSSDSNAPLKNYWGQGTLVTVSS
B17: Nanobody 083 (7C10-40GS-11B09) (VHH)
chain: EVQLVESGGGLVQAGGSLRLSCTASGRTLSSYTMGWFRQAPGTEREFVAAMTRSGFNTYYADSVKGRFTISRDSTENTMALQMSSLKPEDTAVYYCTAGRGLTSYRADYWGQGTLVTVSSGGGGSGGGGSGGGGSGGGGSGGGGSGGGGSGGGGSGGGGSEVQLVESGGGLVQAGGSLRLSCAASRLTFNHYNMGWFRQAPGKERERVAEVTWSGDKIYYVDSVKGRFTISRDNTPNPVYLYLQMNSLKPEDTAVYYCATAPRGLPYANGYWGQGTLVTVSS

Target: PcrV of P. aeruginosa strain PA103 (on TTSS-induced bacteria) (Pseudomonas aeruginosa strain PA103)
Assay: cell-based or functional assay

Going from B1 to B2, the % inhibition in P3X63 cytotoxicity assay, extract 1/150 rises from 57% to 74%.

First: B4
Second: B5
The % inhibition in P3X63 cytotoxicity assay, extract 1/150 of the first is lower: 57% for the first, 69% for the second.

Compared with B6, B7 is lower in % inhibition in P3X63 cytotoxicity assay, extract 1/150: 81% for the first, 63% for the second.

Compared with B8, B9 is higher in % inhibition in P3X63 cytotoxicity assay, extract 1/150: 45% for the first, 66% for the second.

First: B10
Second: B11
The % inhibition in P3X63 cytotoxicity assay, extract 1/150 of the first is higher: 68% for the first, 48% for the second.

First: B12
Second: B13
The % inhibition in P3X63 cytotoxicity assay, extract 1/150 of the first is higher: 52% for the first, 49% for the second.

Compared with B14, B15 is higher in % inhibition in P3X63 cytotoxicity assay, extract 1/150: 41% for the first, 85% for the second.

First: B16
Second: B17
The % inhibition in P3X63 cytotoxicity assay, extract 1/150 of the first is lower: 47% for the first, 61% for the second.

B1 and B5 are the same in Efficacy (%), P3X63 cytotoxicity, MOI 12: 100% for the first, 100% for the second.

B8 and B14 are the same in Efficacy (%), P3X63 cytotoxicity, MOI 12: 100% for the first, 100% for the second.

Going from B1 to B5, the IC50 value (M), P3X63 cytotoxicity, MOI 12 falls from 1.8e-10 M to 9e-11 M (2-fold).

Compared with B8, B14 is 11-fold higher in IC50 value (M), P3X63 cytotoxicity, MOI 12: 7.6e-11 M for the first, 8.2e-10 M for the second.

First: B1
Second: B5
The Ratio (IC50 Fab 13.37/IC50 Nanobody), A549 cytotoxicity of the first is lower: 0.3 fold for the first, 1 fold for the second.

B8 and B14 are the same in Ratio (IC50 Fab 13.37/IC50 Nanobody), A549 cytotoxicity: 1 fold for the first, 1 fold for the second.

B3 gave a % inhibition, P3X63 cytotoxicity assay, MOI 1.5 of 100%.

In the case of B3, the % inhibition, P3X63 cytotoxicity assay, MOI 4 is reported as 100%.

With B3 the IC50 (nM), P3X63 cytotoxicity assay, MOI 1.5 was 34 nM.

With B3 the IC50 (nM), P3X63 cytotoxicity assay, MOI 4 was 48 nM.
